The supplement of paper PMC9112550, “Optimization of the antimicrobial peptide Bac7 by deep mutational scanning” (BMC Biology, 2022)

Tested on: Escherichia coli TOP10
Assay: shrunken log2 fold change of peptide-encoding DNA abundance (4.5 h post-induction vs induction); higher = less antimicrobial activity (less host growth inhibition)
Conditions: time post-induction: 4.5 h; library: site-saturation at positions 5, 18, 19, 20
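Also: peptides expressed intracellularly from a pBAD plasmid library in pooled LB shake-flask culture, induced with 0.3% L-arabinose, DNA abundance read by NGS, three biological replicates, DESeq2 with apeglm shrinkage.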

| Sequence | shrunken log2 fold change |
| --- | --- |
| RRIRMRPPRLPRPRPRPPFFPRP | 0.528 |
| RRIRMRPPRLPRPRPRPPGHPRP | 1.03 |
| RRIRMRPPRLPRPRPRPPGSPRP | 0.904 |
| RRIRMRPPRLPRPRPRPPICPRP | 0.292 |
| RRIRMRPPRLPRPRPRPPMDPRP | 0.343 |
| RRIRMRPPRLPRPRPRPPMFPRP | 0.225 |
| RRIRMRPPRLPRPRPRPPNEPRP | 0.2 |
| RRIRMRPPRLPRPRPRPPNKPRP | 0.604 |
| RRIRMRPPRLPRPRPRPPNSPRP | 0.128 |
| RRIRMRPPRLPRPRPRPPSIPRP | 0.411 |
| RRIRMRPPRLPRPRPRPPSLPRP | 0.619 |
| RRIRMRPPRLPRPRPRPPSTPRP | 0.97 |
| RRIRMRPPRLPRPRPRPPVRPRP | 0.458 |
| RRIRMRPPRLPRPRPRPPVSPRP | 1.27 |
| RRIRMRPPRLPRPRPRPPWCPRP | 0.831 |
| RRIRMRPPRLPRPRPRPPWLPRP | 0.568 |
| RRIRMRPPRLPRPRPRPPWYPRP | 0.117 |
| RRIRMRPPRLPRPRPRPPYLPRP | 0.204 |
| RRIRMRPPRLPRPRPRPPYPPRP | 0.134 |
| RRIRMRPPRLPRPRPRPQAFPRP | 0.0522 |
| RRIRMRPPRLPRPRPRPQCVPRP | 0.039 |
| RRIRMRPPRLPRPRPRPQDEPRP | -0.0393 |
| RRIRMRPPRLPRPRPRPQFMPRP | -0.241 |
| RRIRMRPPRLPRPRPRPQGLPRP | 0.0389 |
| RRIRMRPPRLPRPRPRPQHEPRP | 0.212 |

| Sequence | shrunken log2 fold change |
| --- | --- |
| RRIRMRPPRLPRPRPRPQICPRP | 0.058 |
| RRIRMRPPRLPRPRPRPQIFPRP | -0.0615 |
| RRIRMRPPRLPRPRPRPQKHPRP | 0.159 |
| RRIRMRPPRLPRPRPRPQLIPRP | -0.0368 |
| RRIRMRPPRLPRPRPRPQLKPRP | 1.42 |
| RRIRMRPPRLPRPRPRPQLVPRP | 0.00959 |
| RRIRMRPPRLPRPRPRPQMPPRP | 0.0529 |
| RRIRMRPPRLPRPRPRPQMTPRP | 1.2 |
| RRIRMRPPRLPRPRPRPQNFPRP | 0.0982 |
| RRIRMRPPRLPRPRPRPQPRPRP | 1.22 |
| RRIRMRPPRLPRPRPRPQRLPRP | 0.294 |
| RRIRMRPPRLPRPRPRPQRRPRP | 0.799 |
| RRIRMRPPRLPRPRPRPQSQPRP | 0.226 |
| RRIRMRPPRLPRPRPRPQTCPRP | 0.0193 |
| RRIRMRPPRLPRPRPRPQVDPRP | -0.00893 |
| RRIRMRPPRLPRPRPRPQVQPRP | -0.000946 |
| RRIRMRPPRLPRPRPRPQVRPRP | -0.0122 |
| RRIRMRPPRLPRPRPRPQYWPRP | -0.194 |
| RRIRMRPPRLPRPRPRPRAQPRP | 0.232 |
| RRIRMRPPRLPRPRPRPRCDPRP | 0.397 |
| RRIRMRPPRLPRPRPRPRDKPRP | 0.0704 |
| RRIRMRPPRLPRPRPRPRDPPRP | 0.705 |
| RRIRMRPPRLPRPRPRPRERPRP | 0.623 |
| RRIRMRPPRLPRPRPRPREWPRP | -0.0018 |
| RRIRMRPPRLPRPRPRPRGKPRP | 0.97 |

| Sequence | shrunken log2 fold change |
| --- | --- |
| RRIRMRPPRLPRPRPRPRGLPRP | 0.727 |
| RRIRMRPPRLPRPRPRPRKCPRP | 0.0129 |
| RRIRMRPPRLPRPRPRPRKDPRP | 0.61 |
| RRIRMRPPRLPRPRPRPRLEPRP | 0.113 |
| RRIRMRPPRLPRPRPRPRLYPRP | 0.212 |
| RRIRMRPPRLPRPRPRPRMMPRP | 0.476 |
| RRIRMRPPRLPRPRPRPRMRPRP | 1.41 |
| RRIRMRPPRLPRPRPRPRNTPRP | 0.354 |
| RRIRMRPPRLPRPRPRPRPYPRP | 0.126 |
| RRIRMRPPRLPRPRPRPRQCPRP | 0.594 |
| RRIRMRPPRLPRPRPRPRQPPRP | 0.805 |
| RRIRMRPPRLPRPRPRPRSIPRP | 0.667 |
| RRIRMRPPRLPRPRPRPRSMPRP | -0.00173 |
| RRIRMRPPRLPRPRPRPRSSPRP | 0.923 |
| RRIRMRPPRLPRPRPRPRSVPRP | 0.871 |
| RRIRMRPPRLPRPRPRPRTMPRP | 0.926 |
| RRIRMRPPRLPRPRPRPRTNPRP | 0.295 |
| RRIRMRPPRLPRPRPRPRVIPRP | 0.477 |
| RRIRMRPPRLPRPRPRPRYKPRP | 0.104 |
| RRIRMRPPRLPRPRPRPSAVPRP | 1.16 |
| RRIRMRPPRLPRPRPRPSDWPRP | 0.998 |
| RRIRMRPPRLPRPRPRPSEMPRP | 0.185 |
| RRIRMRPPRLPRPRPRPSEQPRP | -0.0153 |
| RRIRMRPPRLPRPRPRPSEVPRP | 0.159 |
| RRIRMRPPRLPRPRPRPSFSPRP | -0.176 |

| Sequence | shrunken log2 fold change |
| --- | --- |
| RRIRMRPPRLPRPRPRPSGFPRP | 0.411 |
| RRIRMRPPRLPRPRPRPSGIPRP | 0.0258 |
| RRIRMRPPRLPRPRPRPSGKPRP | 0.222 |
| RRIRMRPPRLPRPRPRPSIFPRP | 0.00177 |
| RRIRMRPPRLPRPRPRPSIIPRP | 0.0973 |
| RRIRMRPPRLPRPRPRPSILPRP | 0.0568 |
| RRIRMRPPRLPRPRPRPSINPRP | 0.0424 |
| RRIRMRPPRLPRPRPRPSIRPRP | 0.0426 |
| RRIRMRPPRLPRPRPRPSIYPRP | -0.726 |
| RRIRMRPPRLPRPRPRPSLFPRP | 0.136 |
| RRIRMRPPRLPRPRPRPSPQPRP | 0.716 |
| RRIRMRPPRLPRPRPRPSPTPRP | 1.15 |
| RRIRMRPPRLPRPRPRPSRSPRP | 0.902 |
| RRIRMRPPRLPRPRPRPSRTPRP | 0.715 |
| RRIRMRPPRLPRPRPRPSSDPRP | 0.111 |
| RRIRMRPPRLPRPRPRPSTPPRP | 0.0303 |
| RRIRMRPPRLPRPRPRPSTRPRP | 0.406 |
| RRIRMRPPRLPRPRPRPSTWPRP | 0.081 |
| RRIRMRPPRLPRPRPRPSVIPRP | -0.244 |
| RRIRMRPPRLPRPRPRPSYQPRP | -0.115 |
| RRIRMRPPRLPRPRPRPSYRPRP | -0.0836 |
| RRIRMRPPRLPRPRPRPTAQPRP | 0.819 |
| RRIRMRPPRLPRPRPRPTDSPRP | 0.0971 |
| RRIRMRPPRLPRPRPRPTDTPRP | 0.227 |
| RRIRMRPPRLPRPRPRPTFKPRP | 0.198 |

| Sequence | shrunken log2 fold change |
| --- | --- |
| RRIRMRPPRLPRPRPRPTFPPRP | 0.0878 |
| RRIRMRPPRLPRPRPRPTHCPRP | 0.34 |
| RRIRMRPPRLPRPRPRPTHQPRP | 0.38 |
| RRIRMRPPRLPRPRPRPTKHPRP | 0.17 |
| RRIRMRPPRLPRPRPRPTKLPRP | 0.287 |
| RRIRMRPPRLPRPRPRPTLKPRP | 0.501 |
| RRIRMRPPRLPRPRPRPTMSPRP | -0.148 |
| RRIRMRPPRLPRPRPRPTMVPRP | 0.263 |
| RRIRMRPPRLPRPRPRPTPTPRP | 2 |
| RRIRMRPPRLPRPRPRPTRHPRP | 0.889 |
| RRIRMRPPRLPRPRPRPTSPPRP | 0.278 |
| RRIRMRPPRLPRPRPRPTTTPRP | 0.276 |
| RRIRMRPPRLPRPRPRPTVCPRP | 0.53 |
| RRIRMRPPRLPRPRPRPTYEPRP | -0.16 |
| RRIRMRPPRLPRPRPRPTYKPRP | -0.0666 |
| RRIRMRPPRLPRPRPRPVADPRP | 3 |
| RRIRMRPPRLPRPRPRPVCRPRP | 1.48 |
| RRIRMRPPRLPRPRPRPVCYPRP | -0.21 |
| RRIRMRPPRLPRPRPRPVDEPRP | -0.00101 |
| RRIRMRPPRLPRPRPRPVFIPRP | -0.137 |
| RRIRMRPPRLPRPRPRPVFTPRP | 0.128 |
| RRIRMRPPRLPRPRPRPVFWPRP | 0.884 |
| RRIRMRPPRLPRPRPRPVGAPRP | 1.34 |
| RRIRMRPPRLPRPRPRPVGGPRP | 0.961 |
| RRIRMRPPRLPRPRPRPVGIPRP | 0.158 |

| Sequence | shrunken log2 fold change |
| --- | --- |
| RRIRMRPPRLPRPRPRPVGMPRP | 0.366 |
| RRIRMRPPRLPRPRPRPVIAPRP | 0.125 |
| RRIRMRPPRLPRPRPRPVIKPRP | -0.0254 |
| RRIRMRPPRLPRPRPRPVLCPRP | 0.182 |
| RRIRMRPPRLPRPRPRPVPAPRP | 1.11 |
| RRIRMRPPRLPRPRPRPVPNPRP | 0.12 |
| RRIRMRPPRLPRPRPRPVPPPRP | 0.901 |
| RRIRMRPPRLPRPRPRPVQDPRP | 0.32 |
| RRIRMRPPRLPRPRPRPVRHPRP | 0.237 |
| RRIRMRPPRLPRPRPRPVTMPRP | 0.116 |
| RRIRMRPPRLPRPRPRPVWIPRP | -0.0455 |
| RRIRMRPPRLPRPRPRPVYKPRP | -0.014 |
| RRIRMRPPRLPRPRPRPWFQPRP | 0.134 |
| RRIRMRPPRLPRPRPRPWGHPRP | 0.0533 |
| RRIRMRPPRLPRPRPRPWIMPRP | 0.00173 |
| RRIRMRPPRLPRPRPRPWISPRP | 0.00707 |
| RRIRMRPPRLPRPRPRPWIYPRP | -0.169 |
| RRIRMRPPRLPRPRPRPWKYPRP | -0.198 |
| RRIRMRPPRLPRPRPRPWLCPRP | 0.219 |
| RRIRMRPPRLPRPRPRPWLPPRP | -0.0332 |
| RRIRMRPPRLPRPRPRPWMFPRP | 0.00324 |
| RRIRMRPPRLPRPRPRPWMHPRP | -0.128 |
| RRIRMRPPRLPRPRPRPWMKPRP | -0.234 |
| RRIRMRPPRLPRPRPRPWMRPRP | 0.7 |
| RRIRMRPPRLPRPRPRPWMTPRP | 0.0698 |
